Data: PMC3005890

Target: teichuronic acid synthetase (TUAS) subunit B, 52.5 kDa (Micrococcus luteus (endogenous in ATCC 4698))
Test: native gel or EMSA; endogenous TUAS co-purified from detergent-solubilised membranes; the active ~440 kDa band on a 3-12% native gradient polyacrylamide gel is separated by 9.5% SDS-PAGE into the 54 kDa and 52.5 kDa subunits; the complex carries lipids and pigments

stoichiometry N: 8
Substance: teichuronic acid synthetase (TUAS) subunit A, 54 kDa (natural protein)
